The results in this text go back to the domain aggregation screens of Martell et al. (2025).

This series can be described thus: soluble fraction after stress (log2 fold change); higher = more stays soluble; pooled small domains, quantitative proteomics. Conditions: stress: pH 4. The essentials:
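After pH 4 stress, pooled custom libraries of small protein domains were quantified with high-throughput quantitative proteomics. Aggregation propensity is taken from the fold change in each domain's soluble amount following the acid stress. The scale is log2, where higher values mean more stayed soluble.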
Turning to “HMYRWSEEIFEKLRSDIMAALDLSREQNDEEIYRFIETEVEEYSQNNLLTLKEREQLEHLLFNSL”, the “soluble fraction (log2)” value is -1.12.
The result for “HMYSKVSFTVSVGMTSERVSASLKALGIIDDSAKFNRYLVSNGYSTRIKVGTVELQAGQSYAEIASKLV” reads 0.151; that for “HMYSLSELERIKNFLTGYMSDYSIMMLDANEITNQVDISLKDYSDDNIESIKAAVLSHGGKTDYLNFIDDS”, -1.01.
The result for “HMYSQEEKRYMEIMEIKPQELSAENLKKQYKKLVKKYHPDLHQDDKQAAEEKFKQLTNAYQVLMRRF” reads -0.0526; that for “HMYSSASKEEIDQLMKRLILNLDAKGYFWPQDKEKSLKLYLHNLFSKLPLNSSDIRFLHGLIRALSEE”, -0.693; that for “HMYSSIIGIAFTRAENKPAAPTGGSYSNPHPVDGNWKAAPYDGDGNLWYSIRHFNENVDIQDREWSDPTLG”, 0.0834.
On to “HMYSYSGSVINTYKVPVSVVLKDANGSAIASWDLPVDQSLGISAKDIATSSGTIEITGDGVNETKTVTFTK”, for which the “soluble fraction (log2)” value was -0.159.
In the case of “HMYTGSEGMAGLEGRAVTEVGPEAGTVLVKGEYWQARSDEPIATDRKIRVIRLEGLRLRVAEIHPEG”, the “soluble fraction (log2)” value stood at 0.169.
For the sequence “HMYTPDYLSDLMVRMAHHSTAIEGNTLTQGETKSVLVDGYIPRAMDMRELNEVLNYKAFMTFLVE”, the “soluble fraction (log2)” value was -0.35.
The result for “HMYTTHTQSELNEAARFNGRATYQKGIYYNESKKEHFKVVNGKYQALPNVKQVNGDSWIDKTGITHKG” reads 0.202; that for “HMYTVQQLARLAGITPRTLRHYDAIGLLKPTRVGENGYRYYGSEALLRLQSILLYRELDMPLEDIRRVLDS”, -1.23; that for “HMYVPEVPVPDLLGRSEEEAKNLIEDLGLVFKVSKREYSKEYDEGHVMEQSVDEGAKVKENYPVEVVISR”, -0.325.
“HMYYDDEELDDYRGKASDAYTAAEVEQFEEVLTTMRPEEVHGWLRSLQLRGVALPDALKDEAYMIVSEQAE”: the “soluble fraction (log2)” value was -0.727.
As to “HMYYIITNGKYWVIENPIRPGEYMESTKSSNAKQFTFKQAKNLLNARSKKLGWIRNGYSMVGED”, the “soluble fraction (log2)” value came to 0.427.
